Test results reported in paper PMC3078936 (PLoS ONE, 2011).

Molecular target: T1, DYNLL1 (Homo sapiens, UniProt P63167)
T1 construct: 6xHis (N); made in house; host or cells: E. coli BL21(DE3)Star
Experiment: Isothermal titration calorimetry of peptide/protein binding to DYNLL1
Conditions: ITC binding enthalpy, PBS + 3 mM 2-mercaptoethanol pH 7.4, 299 K
Experimental: Binding parameters of the in vitro evolved Ac-[…] and naturally evolved Ac-DKSTQTD consensus peptides were determined by isothermal titration calorimetry (ITC). Synthetic peptides were used and N-terminal acetylation was applied to better mimic a non-terminal peptide motif by avoiding the positively charged N-terminus. In order to elucidate the particular contribution of Val-5 to the binding affinity, several control peptides were produced. The in vitro evolved Val-5 was replaced with a glycine (Gly-5) to assess side chain function. In a further truncated variant the entire amino acid residue was replaced with an acetate group (Ac-5) to assess the function of the amide group at position −5. The same variations of Val-5, Gly-5 or Ac-5 were also introduced in the framework of the naturally evolved consensus peptide. DYNNL1 binding of all six variants was analyzed by ITC. In all measurements the stoichiometry of binding was 1∶1 (2 peptides binding to one homodimer DYNNL1). […]
All peptides and DYNLL1 were dialyzed overnight in PBS buffer supplemented with 3 mM 2-mercaptoethanol (pH 7.4). […] For each experiment the thermodynamic parameters were determined at 299 K. We used a VP-ITC instrument from Microcal and the data were fitted by the software package Origin 5.0 (OriginLab) using the simple A + B to AB binding model. […]

T1 sequence (P63167 whole entry): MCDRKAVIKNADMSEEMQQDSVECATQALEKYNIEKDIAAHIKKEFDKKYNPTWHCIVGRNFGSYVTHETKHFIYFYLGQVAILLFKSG

ΔH: -7.74 kcal/mol
B1: EML3 (8-94): recombinant fragment of EML3 (residues 8–94) containing a coiled coil domain and the in vitro evolved consensus motif (protein, UniProt Q32P44 8-94, looked up, fragment)
chain: GDGPAREALQSLSQRLRVQEQEMELVKAALAEALRLLRLQVPPSSLQGSGTPAPPGDSLAAPPGLPPTCTPSLVSRGTQTETEVELK
